From publication PMC12008863 (Journal of Translational Medicine, 2025)

Tests used:
[1] = target: T1, Transthyretin (human, amino acids 21-147, recombinant) (human, UniProt P02766 21-147); experiment: SPR
[2] = target: T1, Transthyretin (human, amino acids …); experiment: Langmuir equilibrium adsorption

Kd [1]: 3.68 µM
Kd [2]: 7.13 µM
B1: Heterogeneous nuclear ribonucleoprotein A2B1 (human, amino acids 12-195, recombinant) (domain or fragment)
chain: RKKREKEQFRKLFIGGLSFETTEESLRNYYEQWGKLTDCVVMRDPASKRSRGFGFVTFSSMAEVDAAMAARPHSIDGRVVEPKRAVAREESGKPGAHVTVKKLFVGGIKEDTEEHHLRDYFEEYGKIDTIEIITDRQSGKKRGFGFVTFDDHDPVDKIVLQKYHTINGHNAEVRKALSRQEMQE
